{
  "source": "paper PMC8959180",
  "key": {"[1]": {"target": "MurA-Strep (L. monocytogenes) (UniProt Q8Y4C4)", "assay": "SPR"}, "[2]": {"target": "MurA S262L-Strep (L. monocytogenes) (UniProt Q8Y4C4)", "assay": "SPR"}, "[3]": {"target": "MurA N197D-Strep (L. monocytogenes) (UniProt Q8Y4C4)", "assay": "SPR"}, "[4]": {"target": "ReoM-His (L. monocytogenes) (UniProt P60357)", "sequence (P60357 whole entry)": "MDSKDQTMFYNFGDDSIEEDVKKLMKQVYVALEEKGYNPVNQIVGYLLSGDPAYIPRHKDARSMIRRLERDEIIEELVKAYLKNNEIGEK", "assay": "pull-down + cross-linking; L. monocytogenes ΔclpC strains making ReoM-His were cross-linked in vivo with formaldehyde; ReoM-His purified on MagneHis magnetic beads, decrosslinked by heat; MurA in the eluates detected by Western blot and quantified by densitometry"}},
  "data": [
    {"substance": "recombinant ReoM (from UniProt P60357 1-90) (natural protein)", "values": [
      {"measurement": "Kd", "setting": "[1]", "result": 900, "unit": "nM"},
      {"measurement": "koff", "setting": "[1]", "result": 0.0004, "unit": "s⁻¹"},
      {"measurement": "kon", "setting": "[1]", "result": 500, "unit": "M⁻¹ s⁻¹"},
      {"measurement": "Kd", "setting": "[2]", "result": 800, "unit": "nM"},
      {"measurement": "Kd", "setting": "[3]", "result": 700, "unit": "nM"}
    ]},
    {"substance": "MurA N197D (chromosomal allele, strain LMPR14) (from UniProt Q8Y4C4 1-430) (enzyme)", "values": [
      {"measurement": "percent of wt MurA level copurified", "setting": "[4]", "result": 13, "unit": "%"}
    ]},
    {"substance": "MurA S262L (chromosomal allele, strain LMPR13) (from UniProt Q8Y4C4 1-430) (enzyme)", "values": [
      {"measurement": "percent of wt MurA level copurified", "setting": "[4]", "result": 19, "unit": "%"}
    ]}
  ]
}
